This is an account of results in publication PMC13036491, “RNA binding protein Musashi1 interacts with the viral genomic RNA and restricts SARS-CoV-2 infection by repressing translation”.

For the data set, the target named is GST-Msi1 (Homo sapiens, UniProt O43347 1-362). Briefly: EMSA; GST-Msi1 ~1.5-9 uM; dose-dependent. Particulars: protein: recombinant; tags: N-terminal GST (pGEX 5X-2); label: fluorescein-12-UTP. (A gel shift assay detects complexes by their altered migration in electrophoresis.)
Sequence of GST-Msi1 (O43347 whole entry): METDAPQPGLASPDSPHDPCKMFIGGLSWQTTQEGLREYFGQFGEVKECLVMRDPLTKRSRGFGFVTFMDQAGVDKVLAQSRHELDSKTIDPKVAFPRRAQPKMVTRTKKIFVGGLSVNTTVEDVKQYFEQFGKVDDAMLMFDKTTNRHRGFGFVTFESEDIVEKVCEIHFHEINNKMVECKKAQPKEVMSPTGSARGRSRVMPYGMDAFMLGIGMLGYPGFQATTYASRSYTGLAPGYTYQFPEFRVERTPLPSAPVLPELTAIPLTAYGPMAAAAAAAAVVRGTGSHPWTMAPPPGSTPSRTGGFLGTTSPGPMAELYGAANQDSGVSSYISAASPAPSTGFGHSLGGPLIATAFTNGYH

On to GGGAUUUUAGUAGUGCUAUCCCCA (ssRNA) [M2 RNA (HVR MBE)], for which the binding result is “binds”.
